According to the supplement of paper PMC10567573:

B1: ZNF511 (parent)
chain: HLYPADFRFDKPKKSRSPASAEAP
B2: DLC1 (parent)
chain: RDAIEALCRRLNTLNKCAVMKLEI

Variants of: B1
Assay: protein stability index of a GFP-peptide fusion (GPS, HEK-293T) (PSI 1-6); higher = more stable
Details: c terminus: a fixed tail appended
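Note: lentivirally expressed fusions sorted by FACS into six bins by GFP to DsRed ratio, PSI derived from sequencing read proportions per bin multiplied by bin number.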

Question: With HLYPADFRFDKPKKSRSPASAETP [A23T] as the variant, how does the protein stability index read?
Answer: 2.72

Question: Which protein stability index does the source give for HLYPADFRFDKPKKSRSPASAEVP [A23V] here?
Answer: 2.73

Question: Which protein stability index does the source give for HLYPADFRFDKPKKSRSPASAEWP [A23W] here?
Answer: 2.82

Question: Which protein stability index does the source give for HLYPADFRFDKPKKSRSPASAEYP [A23Y] here?
Answer: 2.63

Question: Which protein stability index does the source give for HLYPADFRFDKPKKSRSPASAEAA [P24A] here?
Answer: 3.32

Question: Which protein stability index does the source give for HLYPADFRFDKPKKSRSPASAEAC [P24C] here?
Answer: 2.88

Question: Which protein stability index does the source give for HLYPADFRFDKPKKSRSPASAEAD [P24D] here?
Answer: 3.44

Question: Which protein stability index does the source give for HLYPADFRFDKPKKSRSPASAEAE [P24E] here?
Answer: 2.6

Question: For HLYPADFRFDKPKKSRSPASAEAF [P24F], which protein stability index is on record?
Answer: 2.94

Question: For HLYPADFRFDKPKKSRSPASAEAG [P24G], which protein stability index is on record?
Answer: 2.42

Question: Which protein stability index does the source give for HLYPADFRFDKPKKSRSPASAEAH [P24H] here?
Answer: 2.87

Question: With HLYPADFRFDKPKKSRSPASAEAI [P24I] as the variant, how does the protein stability index read?
Answer: 2.61

Question: Which protein stability index does the source give for HLYPADFRFDKPKKSRSPASAEAK [P24K] here?
Answer: 2.97

Question: With HLYPADFRFDKPKKSRSPASAEAL [P24L] as the variant, how does the protein stability index read?
Answer: 2.92

Question: With HLYPADFRFDKPKKSRSPASAEAM [P24M] as the variant, how does the protein stability index read?
Answer: 2.53

Question: Which protein stability index does the source give for HLYPADFRFDKPKKSRSPASAEAN [P24N] here?
Answer: 3.09

Question: For HLYPADFRFDKPKKSRSPASAEAQ [P24Q], which protein stability index is on record?
Answer: 2.6

Question: For HLYPADFRFDKPKKSRSPASAEAR [P24R], which protein stability index is on record?
Answer: 2.39

Question: With HLYPADFRFDKPKKSRSPASAEAS [P24S] as the variant, how does the protein stability index read?
Answer: 3.62

Question: Which protein stability index does the source give for HLYPADFRFDKPKKSRSPASAEAT [P24T] here?
Answer: 2.71

Question: With HLYPADFRFDKPKKSRSPASAEAV [P24V] as the variant, how does the protein stability index read?
Answer: 2.98

Question: With HLYPADFRFDKPKKSRSPASAEAW [P24W] as the variant, how does the protein stability index read?
Answer: 2.14

Question: For HLYPADFRFDKPKKSRSPASAEAY [P24Y], which protein stability index is on record?
Answer: 2.69

Variants of: B2
Assay: as above
Details: c terminus: a fixed tail appended

Question: Which protein stability index does the source give for CDAIEALCRRLNTLNKCAVMKLEI [R1C] here?
Answer: 2.52

Question: With DDAIEALCRRLNTLNKCAVMKLEI [R1D] as the variant, how does the protein stability index read?
Answer: 2.4

Question: For EDAIEALCRRLNTLNKCAVMKLEI [R1E], which protein stability index is on record?
Answer: 2.47

Question: With GDAIEALCRRLNTLNKCAVMKLEI [R1G] as the variant, how does the protein stability index read?
Answer: 2.35

Question: With HDAIEALCRRLNTLNKCAVMKLEI [R1H] as the variant, how does the protein stability index read?
Answer: 3.12

Question: For IDAIEALCRRLNTLNKCAVMKLEI [R1I], which protein stability index is on record?
Answer: 2.9

Question: With KDAIEALCRRLNTLNKCAVMKLEI [R1K] as the variant, how does the protein stability index read?
Answer: 2.23

Question: For LDAIEALCRRLNTLNKCAVMKLEI [R1L], which protein stability index is on record?
Answer: 2.02

Question: For MDAIEALCRRLNTLNKCAVMKLEI [R1M], which protein stability index is on record?
Answer: 3.94

Question: With NDAIEALCRRLNTLNKCAVMKLEI [R1N] as the variant, how does the protein stability index read?
Answer: 1.64

Question: Which protein stability index does the source give for PDAIEALCRRLNTLNKCAVMKLEI [R1P] here?
Answer: 2.85

Question: For QDAIEALCRRLNTLNKCAVMKLEI [R1Q], which protein stability index is on record?
Answer: 3.23

Question: For SDAIEALCRRLNTLNKCAVMKLEI [R1S], which protein stability index is on record?
Answer: 3.94

Question: Which protein stability index does the source give for VDAIEALCRRLNTLNKCAVMKLEI [R1V] here?
Answer: 3.38

Question: For YDAIEALCRRLNTLNKCAVMKLEI [R1Y], which protein stability index is on record?
Answer: 2.99

Question: Which protein stability index does the source give for RAAIEALCRRLNTLNKCAVMKLEI [D2A] here?
Answer: 2.4

Question: Which protein stability index does the source give for REAIEALCRRLNTLNKCAVMKLEI [D2E] here?
Answer: 3.12

Question: For RGAIEALCRRLNTLNKCAVMKLEI [D2G], which protein stability index is on record?
Answer: 3.23

Question: For RHAIEALCRRLNTLNKCAVMKLEI [D2H], which protein stability index is on record?
Answer: 1.94

Question: Which protein stability index does the source give for RIAIEALCRRLNTLNKCAVMKLEI [D2I] here?
Answer: 2.03

Question: For RMAIEALCRRLNTLNKCAVMKLEI [D2M], which protein stability index is on record?
Answer: 3.99

Question: Which protein stability index does the source give for RPAIEALCRRLNTLNKCAVMKLEI [D2P] here?
Answer: 3.08

Question: Which protein stability index does the source give for RQAIEALCRRLNTLNKCAVMKLEI [D2Q] here?
Answer: 2.74

Question: Which protein stability index does the source give for RSAIEALCRRLNTLNKCAVMKLEI [D2S] here?
Answer: 3.79

Question: With RWAIEALCRRLNTLNKCAVMKLEI [D2W] as the variant, how does the protein stability index read?
Answer: 4.44

Question: Which protein stability index does the source give for RDCIEALCRRLNTLNKCAVMKLEI [A3C] here?
Answer: 3.99

Question: For RDEIEALCRRLNTLNKCAVMKLEI [A3E], which protein stability index is on record?
Answer: 1.48

Question: With RDGIEALCRRLNTLNKCAVMKLEI [A3G] as the variant, how does the protein stability index read?
Answer: 2.33

Question: Which protein stability index does the source give for RDIIEALCRRLNTLNKCAVMKLEI [A3I] here?
Answer: 2.5

Question: For RDKIEALCRRLNTLNKCAVMKLEI [A3K], which protein stability index is on record?
Answer: 2.7

Question: Which protein stability index does the source give for RDMIEALCRRLNTLNKCAVMKLEI [A3M] here?
Answer: 3.33

Question: With RDNIEALCRRLNTLNKCAVMKLEI [A3N] as the variant, how does the protein stability index read?
Answer: 3.61

Question: With RDQIEALCRRLNTLNKCAVMKLEI [A3Q] as the variant, how does the protein stability index read?
Answer: 2.95

Question: Which protein stability index does the source give for RDVIEALCRRLNTLNKCAVMKLEI [A3V] here?
Answer: 3.3

Question: Which protein stability index does the source give for RDYIEALCRRLNTLNKCAVMKLEI [A3Y] here?
Answer: 2.37

Question: Which protein stability index does the source give for RDAAEALCRRLNTLNKCAVMKLEI [I4A] here?
Answer: 1.76

Question: Which protein stability index does the source give for RDACEALCRRLNTLNKCAVMKLEI [I4C] here?
Answer: 2.22

Question: Which protein stability index does the source give for RDADEALCRRLNTLNKCAVMKLEI [I4D] here?
Answer: 2.67

Question: For RDAEEALCRRLNTLNKCAVMKLEI [I4E], which protein stability index is on record?
Answer: 1.44

Question: With RDAFEALCRRLNTLNKCAVMKLEI [I4F] as the variant, how does the protein stability index read?
Answer: 3.05

Question: Which protein stability index does the source give for RDAHEALCRRLNTLNKCAVMKLEI [I4H] here?
Answer: 2.44

Question: For RDAKEALCRRLNTLNKCAVMKLEI [I4K], which protein stability index is on record?
Answer: 2.37

Question: Which protein stability index does the source give for RDALEALCRRLNTLNKCAVMKLEI [I4L] here?
Answer: 2.59

Question: For RDAMEALCRRLNTLNKCAVMKLEI [I4M], which protein stability index is on record?
Answer: 2.53

Question: For RDANEALCRRLNTLNKCAVMKLEI [I4N], which protein stability index is on record?
Answer: 2.4

Question: Which protein stability index does the source give for RDAQEALCRRLNTLNKCAVMKLEI [I4Q] here?
Answer: 2.12

Question: With RDAREALCRRLNTLNKCAVMKLEI [I4R] as the variant, how does the protein stability index read?
Answer: 2.41

Question: Which protein stability index does the source give for RDATEALCRRLNTLNKCAVMKLEI [I4T] here?
Answer: 2.24

Question: For RDAVEALCRRLNTLNKCAVMKLEI [I4V], which protein stability index is on record?
Answer: 3.39

Question: Which protein stability index does the source give for RDAIAALCRRLNTLNKCAVMKLEI [E5A] here?
Answer: 2.3

Question: For RDAICALCRRLNTLNKCAVMKLEI [E5C], which protein stability index is on record?
Answer: 2.39

Question: For RDAIHALCRRLNTLNKCAVMKLEI [E5H], which protein stability index is on record?
Answer: 2.47

Question: For RDAIIALCRRLNTLNKCAVMKLEI [E5I], which protein stability index is on record?
Answer: 2.84

Question: With RDAILALCRRLNTLNKCAVMKLEI [E5L] as the variant, how does the protein stability index read?
Answer: 3.21

Question: Which protein stability index does the source give for RDAIMALCRRLNTLNKCAVMKLEI [E5M] here?
Answer: 3.42

Question: With RDAIPALCRRLNTLNKCAVMKLEI [E5P] as the variant, how does the protein stability index read?
Answer: 3.06

Question: With RDAIRALCRRLNTLNKCAVMKLEI [E5R] as the variant, how does the protein stability index read?
Answer: 2.97

Question: For RDAISALCRRLNTLNKCAVMKLEI [E5S], which protein stability index is on record?
Answer: 1.83

Question: With RDAIVALCRRLNTLNKCAVMKLEI [E5V] as the variant, how does the protein stability index read?
Answer: 1.97

Question: For RDAIWALCRRLNTLNKCAVMKLEI [E5W], which protein stability index is on record?
Answer: 2.13

Question: For RDAIYALCRRLNTLNKCAVMKLEI [E5Y], which protein stability index is on record?
Answer: 2.23

Question: Which protein stability index does the source give for RDAIECLCRRLNTLNKCAVMKLEI [A6C] here?
Answer: 3.07

Question: Which protein stability index does the source give for RDAIEDLCRRLNTLNKCAVMKLEI [A6D] here?
Answer: 1.41

Question: With RDAIEELCRRLNTLNKCAVMKLEI [A6E] as the variant, how does the protein stability index read?
Answer: 1.64

Question: With RDAIEFLCRRLNTLNKCAVMKLEI [A6F] as the variant, how does the protein stability index read?
Answer: 3.71

Question: Which protein stability index does the source give for RDAIEGLCRRLNTLNKCAVMKLEI [A6G] here?
Answer: 3.12

Question: For RDAIEHLCRRLNTLNKCAVMKLEI [A6H], which protein stability index is on record?
Answer: 3.17

Question: With RDAIEKLCRRLNTLNKCAVMKLEI [A6K] as the variant, how does the protein stability index read?
Answer: 2.82

Question: For RDAIELLCRRLNTLNKCAVMKLEI [A6L], which protein stability index is on record?
Answer: 3.11

Question: With RDAIEMLCRRLNTLNKCAVMKLEI [A6M] as the variant, how does the protein stability index read?
Answer: 2.97

Question: With RDAIENLCRRLNTLNKCAVMKLEI [A6N] as the variant, how does the protein stability index read?
Answer: 2.69
